According to the DeepSol protein solubility set:

Assay: soluble on expression in E. coli; label from the status in PepcDB or PDB records

Sequence	soluble on expression in E. coli
MGSDKIHHHHHHMINTKNLNVFYNENKVLKDIQLEVIPGRITGIIGPNGAGKSTLIKAILNIVPHSGEILINGEVSKKQLKKIAYVEQKSDIDHTFPIKVKECVSLGTYTGLKLFQKLGAKEWSRVSEALQKVNLLDYENRQIGELSGGQFQRVLLARCLVQEADYIFLDEPFVGIDSISEKIIMDILQDLKHQGKTILIVHHDLSKVKEYFDDIIILNRELIAYGPINENFSQKNLKKAYGDNIFIGD	not soluble
MKFAFIAKHRSIWPVAWLCEALGVSRSGFHAWFNRSPSEHARHDEVLLERIKQSFQSSDRTYGARRVWHDVLEEGLSCGLHRIERLMRLNALRARPRRRGFPKDAGDRPVVMPNVLDRQFVADRPNQKWVADFTYIWTAEGWLYVAAVIDLFSRRVVGWSMNANMTAQLVTDALIMAIWRRGKPDALLHHSDQGSQYTSEQFQRLMGDHGITCSMSRSGNVWDNAAMESFFSSLKTERTARKVYRTRNDARADVFDYIERFYNPKRRHSTLGYLSPDDFETKVGLA	soluble
MGSDKIHHHHHHMSHDTVSPGLSLREIRAILAVAEQRGFSSAARRLNISQSSLSRTIHRAESVLAIRLFQRGWGGAEPTPEGEIVRQHCTQVMAELLHERDALMAAGLTRLPLPLDLRWRDLACVAAVVHTGKTTTAAKWLRTSQSSVSRTLGAISVRLGSPLFQRSGEGLRAEPLAERLVALRDRMCARMQPLQERLGHLAGEVTGRLAVGMTPFCEQERVAQAFGDLLVAYPQLRLSAVTGSYVMLTDALRCGEIDLVVGLLRELGEDDELAELPLAEEAITVLARSDHPCAVRSVSMEDLARQTWIVAPAGTPIRAYFERLFLGMGKTPPVQTCEIVTFHLAESMVRESQSLALLLYSPRKVRELPPGLVRVPVTLPDNRRHIGVTYRRDAGLSFTQRQFIDGLAKRFASDDDAEGNAP	not soluble
HITLNYLSKTLGMHQTINVILPEDKSYFDTNENAKPLKTMLLLHGLSSDTSSYMRYTSIERYANTHQLAVVMPNADHSFYSNMAYGHSYYDYILEVYDYVHQILPLSKKREDNFIAGHSMGGYGAIKFALTQSYRFSKAAMLSAPYDVSMIGQYQWYDFTPEAIVGNTQHVAGTSFDPYYLVEQAIDNGQALPQLYITCGTEDELYQGNIDFVNYLDEKGIPYQFKKAPGNHDYAFWDKAIEDVIDRF	not soluble
GMTDGEAVSAAAGPGAEGPPGPVGHWAPGSHILWRYRENGGPHVHIARPVTVVRDDADLLAVWLAPGTECVKPVLADGTPVHLEPLATRYTKPRTVQRDQWFGTGVLKLARPGEAWSVWLFWDPGWRFKNWYVNLERPLTRWEGGVDSEDHFLDISVHPDRTWHWRDEDEFAQALRDGLMDPASAGRVRRAGRSAVAEIRAWGSPFADGWEHWRPDPAWPVPSLPGDWDRTPAHVSS	soluble
MAQVKAEYDFQSQPNTGELSISAGEVLTVIRENIDGGWIEGRNVRGSVGLFPESYVTPYQASRPPPVLPPPLPPTSSGPPAASSRPFDDWGGASEVAAPPSYGAQHHHQPTPSVPEVTRSSYPSQNDDFDDEWTDEDDEQEPTRPNVQSSIGSNSRRDLSRSHSEHGGPDRGSNKVNKNINRFSNFVKSGVEAYVIGESKTTSQISERHEVVMNNGIIQWKPIQQYYTCIVDKPKKESKLKGLKSFIAYSITSSLTNIQRQVSRRYKHFDWLHEQLSAKYVLIPIPPLPEKQVAGRYEEDLIDHRKHILQLWVNKICRHPVLSQSEVWLHFISCTDEKDWKNGKRRAEKDEYIGGAFLNCITVPHQPLDPNNVDMQVERFQRSVKTSEEAMRVMQERMNMFQKVFAGPVKQNWQKMGSAFKTLQQSFEIDETVASRRLTEALAYTASEYHEIGQVFDAHTKNDMEPVLENLYSYKGTVQNVPDIIQVHKQAVQKFRDSEGRLSSAEAEKMKQRIDAMSYTVIAEVQHQTAEKVEDMKSTMGTYLKKQAMFYQEVATKLTSLAARYD	not soluble
MGSDKIHHHHHHMGQVSGCFATSYAEARQKFLAAARGAGATLAEFPHPTRRGSAGEDLAMDVAWVGPADARRVLIISSGVHGVEGFCGSGAQVALLSDSILLADCAEARLGLLVVHAVNPYGFSHLRRVNEDNVDLNRNFMDFAQPLPDNAPYAEIAPMLLPTHWPPSGEEQAQFMKAVAEKGMDWYQTAVSSGQYQDPKGLFYGGNKETWSNYTLRRVLARFGSARGSLRWIDIHTGLGPWGYGEPICMGPDDDGQLKRTRAIWGGEVTSIYDGSSSSARLTGLAWEAVPGTLPDVDYAGIALEFGTLPVAEVLDALRGDHWLYLHPEADENQRTLVRQAMWRAFYGDAYDWRAGVVEQVTEAVRKAMRAR	not soluble
MGHHHHHHSHVFDRPDLGDQAILVSLDFGDADYQESVAECAELVRGSKVEILGMVQGKRQRPDAALFAGKGKVEEIASMVRATGANVVIFNHALSPGQERNLERALQCRVIDRNSLILDIFAQRARSHEGKLQVELAQLSHLSTRLVRGWTHLERQKGGVGLRGPGETQLETDRRLLGIRVKALKDRLAQVQKQRNTQRRSRNRAGVSSVSIVGYTNAGKSTLFNALTKANIYAADQLFATLDTTSRKLFLNHDCSVVLSDTVGFIRDLPHTLVAAFRATLEETVQANLLLHVVDCANETRDAQIDEVNKVLAEIDADGIPQLIVWNKGDLRELPPEIERDEDGVAVAVRVSALKGEGLELLREAIAERVQPFANNHKEPYEHVAE	soluble
MEKENTNGGSVYVTVDGHFKPVHVSMKGTGEKGFLEFMLEDVEKALKETEMPVIGMMYYNVPDMGIVPHLWEGNNDDYLQRLEKAMDGHGIKLHRYLRLSEVVYCL	not soluble
MITIDLHTHTSHSHGQATVQEMFEAGCARGLLVHGFSEHSPRPSGYDYPKDYRDKLTRSFPDYVEQVRTLAATYAPERTVLLGLEMDWLPGQEPFIDATIHRYDYDYVIGGIHFLGTWGFDYTPDDWQGFSPEQTADIYVRYFESLRRMAASGMFDIAAHPDIIKIFSAAAFHDWLATDKAKAVVRDALETMHTAGMAMEISSAGLRKPCKEIYPCPDIMRMAADIGLPVTFGSDAHCVNTIGWGFDTLADYARGFGYTRSVWMRRGERFERPFLEHHHHHH	soluble
MLITDTLSPQAFEEALRAKGDFYHIHHPYHIAMHNGNATREQIQGWVANRFYYQTTIPLKDAAIMANCPDAQTRRKWVQRILDHDGSHGEDGGIEAWLRLGEAVGLSRDDLLSERHVLPGVRFAVDAYLNFARRACWQEAACSSLTELFAPQISQSRLDSWPQHYPWIKEEGYFYFRSRLSQANRDVEHGLALAKAYCDSAEKQNRMLEILQFKLDILWSMLDAMTMAYALQRPPYHTVTDKAAWHTTRLVLEHHHHH	soluble
MSLNQRTLFDKIWDEHVVDVGADGTTLLYVDRHFLHEVTSPQAFRGLQLAGRRPWRSDANLAMPDHNVPTKDRAAHLDDALARAQIEALDRNCAEFAVPLFRLSDPRQGIVHVSGPEQGASLPGSVIVCGDSHTSTHGALATIAHGIGTSEVEHVLATQTLLARKPARMRVNFHGVAGAGVSAKDMALAMIAKVGAAGAQGYAIEYAGEAVRCLSVEARMTLCNMSIEAGARCGMVAVDDKTIEYLRGRPMAPRGESWDLAVRTWRALVSDHDAQFDVEIEIDVGMLGPLVTWGTSPDMVISVDEKIPDPAAEKDGTRRAGMERALRYMDLAPGTPITDVRLDRIFIGSCTNSRLEDLRAAAEVIRGKHVAASIRQALVVPGSGLVKQQAENEGLHQLFIDAGFEWRDAGCSMCVGMNADHLLSGERCASTSNRNFEDRQGVGGRTHLVSPAMAAAAAIAGHFVDIRRSEGHHHHHH	not soluble
VVQPADIDVPETPARPVLVVDFGAQYAQLIARRVREARVFSEVIPHTASIEEIRARQPVALVLSGGPASVYADGAPKLDPALLDLGVPVLGICYGFQAMAQALGGIVAHTGTREYGRTELKVLGGKLHSDLPEVQPVWMSHGDAVTAAPDGFDVVASSAGAPVAAFEAFDRRLAGVQYHPEVMHTPHGQQVLSRFLHDFAGLGAQWTPANIANALIEQVRTQIGDGHAICGLSGGVDSAVAAALVQRAIGDRLTCVFVDHGLLRAGERAQVQRDFVAATGANLVTVDAAETFLEALSGVSAPEGKRKIIGRQFIRAFEGAVRDVLDGKTAEFLVQGTLYPDVVESGGGSGTANIKSHHNVGGLPDDLKFTLVEPLRLLFKDEVRAVGRELGLPEEIVARQPFPGPGLGIRIVGEVTAKRLDTLRHADSIVREELTAAGLDNQIWQCPVVLLADVRSVGVQGDGRTYGHPIVLRPVSSEDAMTADWTRVPYEVLERISTRITNEVAEVNRVVLDITSKPPATIEWE	not soluble
